According to US20090053198A1 (published 2009):

Target: T1, human E-selectin on CHO-E cells (human, UniProt P16581 22-610)
T1 construct: whole, on cells
T1 sequence (looked up): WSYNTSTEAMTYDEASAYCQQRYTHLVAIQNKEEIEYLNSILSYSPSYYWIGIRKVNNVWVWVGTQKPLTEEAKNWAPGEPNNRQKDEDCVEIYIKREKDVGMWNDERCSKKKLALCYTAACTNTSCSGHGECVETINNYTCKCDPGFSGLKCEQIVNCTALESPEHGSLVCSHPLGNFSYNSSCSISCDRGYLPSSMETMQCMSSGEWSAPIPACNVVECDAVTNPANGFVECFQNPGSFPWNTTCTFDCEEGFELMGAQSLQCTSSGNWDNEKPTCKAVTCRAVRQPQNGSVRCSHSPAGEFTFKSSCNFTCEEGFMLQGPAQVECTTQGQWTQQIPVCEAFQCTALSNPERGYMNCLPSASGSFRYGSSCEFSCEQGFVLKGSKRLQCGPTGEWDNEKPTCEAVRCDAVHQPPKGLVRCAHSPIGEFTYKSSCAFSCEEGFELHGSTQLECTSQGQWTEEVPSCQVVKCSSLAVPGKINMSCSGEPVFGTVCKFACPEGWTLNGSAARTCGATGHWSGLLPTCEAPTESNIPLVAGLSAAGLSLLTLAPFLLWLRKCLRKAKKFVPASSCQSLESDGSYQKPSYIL
Experiment: blot rolling assay: CHO-E perfused at 0.6 dyne/cm^2 over blotted ML-M membrane glycoproteins (˜130 kDa band)
Source text: Blot rolling assays: The blot rolling assay has been described previously²⁹. CHO-E were washed in PBS, and resuspended to 2×10⁶ cells/ml in assay buffer/10% glycerol. […] These blots were then placed in the parallel plate flow chamber, and CHO-E were perfused into the chamber at a shear stress of 0.6 dyne/cm²; an adjustment in the volumetric flow rate was made to account for the increase in viscosity due to the presence of 10% glycerol in the assay buffer. Molecular weight standards (SeeBlue® Plus2 prestained molecular weight standard; Invitrogen Corporation; Carlsbad, Calif.) were co-electrophoresed on adjacent lanes and served as a guide to aid placement of the flow chamber over the stained bands of interest. The number of tethering and rolling CHO-E was tabulated as function of the molecular weight region and compiled into an adhesion histogram. Negative controls were prepared by adding 10 mM EDTA to the assay buffer to chelate Ca²⁺ required for binding or treating CHO-E with anti E-selectin mAb, 68-5411, at 4° C. for 15 min. prior to use in adhesion assays.
For these experiments, we could not assess binding interactions over the entire lane due to the length restriction of the flow chamber; because the differences in HECA-reactivity in proteins from ML and NL clustered within mobilities encompassing 30 kDa-170 kDa, we set the field view over this range. […]

- binding result: binds
B1: PSGL-1 (P-selectin glycoprotein ligand-1) of G-CSF mobilized leukocytes (ligand, human, UniProt Q14242 42-412, looked up)
chain: QATEYEYLDYDFLPETEPPEMLRNSTDTTPLTGPGTPESTTVEPAARRSTGLDAGGAVTELTTELANMGNLSTDSAAMEIQTTQPAATEAQTTQPVPTEAQTTPLAATEAQTTRLTATEAQTTPLAATEAQTTPPAATEAQTTQPTGLEAQTTAPAAMEAQTTAPAAMEAQTTPPAAMEAQTTQTTAMEAQTTAPEATEAQTTQPTATEAQTTPLAAMEALSTEPSATEALSMEPTTKRGLFIPFSVSSVTHKGIPMAASNLSVNYPVGAPDHISVKQCLLAILILALVATIFFVCTVVLAVRLSRKGHMYPVRNYSPTEMVCISSLLPDGGEGPSATANGGLSKAKSPGLTPEPREDREGDDLTLHSFLP
modifications: sialofucosylated (HECA-452-reactive) glycans; positions not given
notes: Native glycoprotein from donor cells; seen as ˜220 kDa dimer and ˜130 kDa monomer on blots; also called ˜220 kDa band (dimer); ˜130 kDa band (monomer)
